Laboratory results from US20210349096A1.

Target: LILRB4 on human monocytic AML THP-1 cells (human) (UniProt Q8NHJ6)
Experiment: flow cytometry, anti-His tag-APC alone on wild-type THP-1 cells (negative control); lilrb4-knockout THP-1 cells in the same panel: KO 0.9% [panel e]

LILRB4 on human monocytic AML THP-1 cells (human), sequence (Q8NHJ6 22-448): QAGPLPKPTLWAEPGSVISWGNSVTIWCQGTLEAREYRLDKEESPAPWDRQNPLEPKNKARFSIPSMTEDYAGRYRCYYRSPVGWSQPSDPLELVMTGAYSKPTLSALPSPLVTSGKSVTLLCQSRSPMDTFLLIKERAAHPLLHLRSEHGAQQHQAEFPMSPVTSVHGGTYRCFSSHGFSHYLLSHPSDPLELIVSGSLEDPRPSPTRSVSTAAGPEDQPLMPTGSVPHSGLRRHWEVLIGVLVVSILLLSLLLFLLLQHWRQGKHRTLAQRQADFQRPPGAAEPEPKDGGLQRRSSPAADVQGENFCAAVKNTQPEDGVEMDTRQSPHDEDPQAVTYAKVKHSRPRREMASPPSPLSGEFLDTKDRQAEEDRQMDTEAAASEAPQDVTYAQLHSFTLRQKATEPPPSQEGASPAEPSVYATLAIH

% of cells in the positive gate: 0.4%
Substance: Ctrl (anti-His tag-APC) (antibody)
